The values below come from patent US20260263646A1 (ENLAZA THERAPEUTICS, published 2026).

Experiment [1] has as its target T1, PSMA on LNCaP cells (human, UniProt Q04609 1-750).
T1 construct: whole, on cells; also called LNCaP (PSMA+)
Briefly: flow cytometry on LNCaP cells. (Flow cytometry measures light scatter and fluorescence of single cells or particles in a stream.)

Experiment [2] concerns the target PSMA on PC3pip cells (UniProt Q04609 1-750, limits assumed). Briefly: cell-based or functional assay.
For experiment [3], the target named is T2, PSMA (commercial, Sino Bio cat #15877-H07H) (UniProt Q04609 44-750).
T2 construct: also called receptor
T2 sequence (Q04609 44-750 limits assumed): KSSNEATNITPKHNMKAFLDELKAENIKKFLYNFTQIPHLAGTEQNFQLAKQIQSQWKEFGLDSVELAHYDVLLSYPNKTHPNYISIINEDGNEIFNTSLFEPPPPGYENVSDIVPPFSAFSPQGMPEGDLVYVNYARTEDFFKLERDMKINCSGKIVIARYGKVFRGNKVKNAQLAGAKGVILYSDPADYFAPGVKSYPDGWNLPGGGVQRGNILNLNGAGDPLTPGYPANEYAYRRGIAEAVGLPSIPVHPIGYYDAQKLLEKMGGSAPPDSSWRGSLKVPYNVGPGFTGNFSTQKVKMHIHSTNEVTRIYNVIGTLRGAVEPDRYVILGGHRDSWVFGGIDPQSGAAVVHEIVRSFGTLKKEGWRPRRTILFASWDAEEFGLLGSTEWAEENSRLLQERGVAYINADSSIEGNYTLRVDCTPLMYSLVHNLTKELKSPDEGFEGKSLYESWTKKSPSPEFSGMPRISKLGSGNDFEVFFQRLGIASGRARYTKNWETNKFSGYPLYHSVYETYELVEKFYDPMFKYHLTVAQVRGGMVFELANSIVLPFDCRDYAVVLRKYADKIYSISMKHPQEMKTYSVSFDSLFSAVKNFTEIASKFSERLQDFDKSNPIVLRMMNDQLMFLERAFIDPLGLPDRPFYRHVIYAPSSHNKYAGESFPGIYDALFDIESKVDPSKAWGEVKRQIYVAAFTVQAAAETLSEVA
Briefly: SDS-PAGE, lysate + PSMA, 3 h 37C.

Experiment [4] concerns the target T2, PSMA (commercial, Sino Bio cat …). Briefly: SDS-PAGE, overnight 37C, ~7:1 sdAb:PSMA.
Experiment [5] shares this target. Briefly: SDS-PAGE, 37C, ~8:1 sdAb:PSMA.

T1 sequence (Q04609 whole entry): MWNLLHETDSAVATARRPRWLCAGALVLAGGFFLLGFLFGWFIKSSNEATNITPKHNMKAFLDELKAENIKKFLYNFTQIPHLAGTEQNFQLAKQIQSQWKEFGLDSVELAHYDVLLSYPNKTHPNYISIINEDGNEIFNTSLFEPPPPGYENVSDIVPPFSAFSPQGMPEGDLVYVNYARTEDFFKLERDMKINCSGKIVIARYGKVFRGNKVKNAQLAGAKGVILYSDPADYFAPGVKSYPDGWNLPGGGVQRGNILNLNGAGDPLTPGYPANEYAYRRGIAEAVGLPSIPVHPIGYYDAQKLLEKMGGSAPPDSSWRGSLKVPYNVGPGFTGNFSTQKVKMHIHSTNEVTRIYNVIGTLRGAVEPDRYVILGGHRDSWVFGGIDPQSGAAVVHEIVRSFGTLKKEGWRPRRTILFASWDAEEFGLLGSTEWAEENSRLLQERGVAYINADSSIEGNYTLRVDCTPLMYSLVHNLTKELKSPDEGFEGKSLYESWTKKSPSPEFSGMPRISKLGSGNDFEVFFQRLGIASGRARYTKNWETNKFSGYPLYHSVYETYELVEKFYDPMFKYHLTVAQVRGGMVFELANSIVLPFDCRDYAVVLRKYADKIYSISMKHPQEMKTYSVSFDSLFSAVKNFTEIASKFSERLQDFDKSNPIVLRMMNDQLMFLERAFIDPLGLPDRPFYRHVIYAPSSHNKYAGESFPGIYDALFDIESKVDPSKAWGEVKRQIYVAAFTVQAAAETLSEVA
Chain of PSMA on PC3pip cells (Q04609 whole entry): as above

B1: C34-TYR (bispecific antibody)
chain: EVQLVESGGGLVQPGGSLTLSCAASRFMISEYSMHWVRQAPGKGLEWVSTINPYGTTDYAESVKGRFTISRDNAKNTLYLQMNSLKPEDTAVYYCDGYGYRGQGTQVTVSSGGGGSGGGGSGGGGSQVQLQESGGGSVEAGGSLRLSCARSGWPYSTYSMNWFRQAPGKEREAVAGISSTMSGIIFAESKAGQFTISQDNAKNTVYLQMNNLKPEDTAIYYCAARRYFSLSSSSDDFDYWGQGTQVTVSSAAAYPYDVPDYGSLPETGGSPSTPPTPSPSTPP
notes: Biparatopic tandem of two anti-PSMA VHH
What is called EC50 is the concentration that produces a half-maximal response. Low readings indicate an effect from little substance, high ones a need for much substance. Molecule B1 returned a half-maximal effective concentration (EC50) in experiment [1] of 2.3 nM.

B2: C28-101TYR (VHH)
VHH: QVQLQESGGGSVEAGGSLRLSCARSGWPYSTYSMNWFRQAPGKEREAVAGISSTMSGIIFAESKAGQFTISQDNAKNTVYLQMNNLKPEDTAIYYCAARRYFSLSSSSDDFDYWGQGTQVTVSS
modifications: MC-PEG8-VC-PABC-MMAE on the C-terminal Cys
Turning to B2, the “IC50 PC3pip (M), cell viability by CellTiter-Glo after 4 days” value in experiment [2] was 8.47e-08 M.

B3: C3-101FSY (VHH)
VHH: QVQLQESGGGSVEAGGSLRLSCARSGWPYSTYSMNWFRQAPGKEREAVAGISSTMSGIIFAESKAGQFTISQDNAKNTVYLQMNNLKPEDTAIYYCAARRXYSLSSSSDDFDYWGQGTQVTVSS
modifications: not fully specified; FSY at 101
notes: plus C-terminal His6
Consider B3, for which the crosslinking efficiency in experiment [3] was less than 50%.

B4: C3-107FSY (VHH)
VHH: QVQLQESGGGSVEAGGSLRLSCARSGWPYSTYSMNWFRQAPGKEREAVAGISSTMSGIIFAESKAGQFTISQDNAKNTVYLQMNNLKPEDTAIYYCAARRDYSLSSXSDDFDYWGQGTQVTVSS
modifications: not fully specified; FSY at 107
notes: plus C-terminal His6; tested as cell lysate
Turning to B4, the crosslinking efficiency in experiment [3] was less than 50%.

B5: C3-58FSY (VHH)
VHH: QVQLQESGGGSVEAGGSLRLSCARSGWPYSTYSMNWFRQAPGKEREAVAGISSTMSGXIFAESKAGQFTISQDNAKNTVYLQMNNLKPEDTAIYYCAARRDYSLSSSSDDFDYWGQGTQVTVSS
modifications: not fully specified; FSY at 58
notes: as for B4
As to B5, in experiment [3], the crosslinking efficiency is greater than 50%.

B6: C3-62FSY (VHH)
VHH: QVQLQESGGGSVEAGGSLRLSCARSGWPYSTYSMNWFRQAPGKEREAVAGISSTMSGIIFAXSKAGQFTISQDNAKNTVYLQMNNLKPEDTAIYYCAARRDYSLSSSSDDFDYWGQGTQVTVSS
modifications: not fully specified; FSY at 62
notes: as for B4
On to B6, for which the crosslinking efficiency in experiment [3] was greater than 50%.

B7: C24-101TYR (VHH)
VHH: QVQLQESGGGSVEAGGSLRLSCARSGWPYSTYSMNWFRQAPGKEREAVAGISSTMSGIIFAESKAGQFTISQDNAKNTVYLQMNNLKPEDTAIYYCAARRYFSLSSSSDDFDYWGQGTQVTVSS
Molecule B7 yielded an EC50 in experiment [1] greater than 500 nM.

B8: C3-103FSY (VHH)
VHH: QVQLQESGGGSVEAGGSLRLSCARSGWPYSTYSMNWFRQAPGKEREAVAGISSTMSGIIFAESKAGQFTISQDNAKNTVYLQMNNLKPEDTAIYYCAARRDYXLSSSSDDFDYWGQGTQVTVSS
modifications: not fully specified; FSY at 103
notes: as for B4
B8: in experiment [3], the crosslinking efficiency was less than 50%.

B9: C1-26FSY (VHH)
VHH: QVQLQESGGGSVQAGGSLRLSCTAPXYTDSNYYMSWFRQAPGKEREWVAGVNTGRGSTSYADSVKGRFTISQDNAKNTMFLQMNSLKPEDTAIYYCAVAACHFCDSLPKTQDEYILWGQGTQVTVSS
modifications: not fully specified; FSY at 26
notes: plus C-terminal His6
As for B9, the crosslinking efficiency in experiment [4] is less than 50%.

B10: C1-115FSY (VHH)
VHH: QVQLQESGGGSVQAGGSLRLSCTAPGYTDSNYYMSWFRQAPGKEREWVAGVNTGRGSTSYADSVKGRFTISQDNAKNTMFLQMNSLKPEDTAIYYCAVAACHFCDSLPKTQDEYXLWGQGTQVTVSS
modifications: not fully specified; FSY at 115
notes: plus C-terminal His6
In turn, B10 returned a crosslinking efficiency in experiment [4] of less than 50%.

B11: C1-29FSY (VHH)
VHH: QVQLQESGGGSVQAGGSLRLSCTAPGYTXSNYYMSWFRQAPGKEREWVAGVNTGRGSTSYADSVKGRFTISQDNAKNTMFLQMNSLKPEDTAIYYCAVAACHFCDSLPKTQDEYILWGQGTQVTVSS
modifications: not fully specified; FSY at 29
notes: plus C-terminal His6
As for B11, the crosslinking efficiency in experiment [4] was greater than 50%.

B12: C1-105FSY (VHH)
VHH: QVQLQESGGGSVQAGGSLRLSCTAPGYTDSNYYMSWFRQAPGKEREWVAGVNTGRGSTSYADSVKGRFTISQDNAKNTMFLQMNSLKPEDTAIYYCAVAACHFCXSLPKTQDEYILWGQGTQVTVSS
modifications: not fully specified; FSY at 105
notes: plus C-terminal His6
In experiment [4], B12 came in with a crosslinking efficiency of less than 50%.

B13: C1-103FSY (VHH)
VHH: QVQLQESGGGSVQAGGSLRLSCTAPGYTDSNYYMSWFRQAPGKEREWVAGVNTGRGSTSYADSVKGRFTISQDNAKNTMFLQMNSLKPEDTAIYYCAVAACHXCDSLPKTQDEYILWGQGTQVTVSS
modifications: not fully specified; FSY at 103
notes: plus C-terminal His6
Consider B13, for which the crosslinking efficiency in experiment [4] was less than 50%.

B14: C1-111FSY (VHH)
VHH: QVQLQESGGGSVQAGGSLRLSCTAPGYTDSNYYMSWFRQAPGKEREWVAGVNTGRGSTSYADSVKGRFTISQDNAKNTMFLQMNSLKPEDTAIYYCAVAACHFCDSLPKTXDEYILWGQGTQVTVSS
modifications: not fully specified; FSY at 111
notes: plus C-terminal His6
Turning to B14, the crosslinking efficiency in experiment [4] is less than 50%.

B15: C1-99FSY (VHH)
VHH: QVQLQESGGGSVQAGGSLRLSCTAPGYTDSNYYMSWFRQAPGKEREWVAGVNTGRGSTSYADSVKGRFTISQDNAKNTMFLQMNSLKPEDTAIYYCAVXACHFCDSLPKTQDEYILWGQGTQVTVSS
modifications: not fully specified; FSY at 99
notes: plus C-terminal His6
In the case of B15, in experiment [4], the crosslinking efficiency is less than 50%.

B16: C1-110FSY (VHH)
VHH: QVQLQESGGGSVQAGGSLRLSCTAPGYTDSNYYMSWFRQAPGKEREWVAGVNTGRGSTSYADSVKGRFTISQDNAKNTMFLQMNSLKPEDTAIYYCAVAACHFCDSLPKXQDEYILWGQGTQVTVSS
modifications: not fully specified; FSY at 110
notes: plus C-terminal His6
With B16, the crosslinking efficiency in experiment [4] is less than 50%.

B17: C1-108FSY (VHH)
VHH: QVQLQESGGGSVQAGGSLRLSCTAPGYTDSNYYMSWFRQAPGKEREWVAGVNTGRGSTSYADSVKGRFTISQDNAKNTMFLQMNSLKPEDTAIYYCAVAACHFCDSLXKTQDEYILWGQGTQVTVSS
modifications: not fully specified; FSY at 108
notes: plus C-terminal His6
In the case of B17, the crosslinking efficiency in experiment [4] is less than 50%.

B18: C1-30FSY (VHH)
VHH: QVQLQESGGGSVQAGGSLRLSCTAPGYTDXNYYMSWFRQAPGKEREWVAGVNTGRGSTSYADSVKGRFTISQDNAKNTMFLQMNSLKPEDTAIYYCAVAACHFCDSLPKTQDEYILWGQGTQVTVSS
modifications: not fully specified; FSY at 30
notes: plus C-terminal His6
Regarding B18, the crosslinking efficiency in experiment [4] is greater than 50%.

B19: C1-114FSY (VHH)
VHH: QVQLQESGGGSVQAGGSLRLSCTAPGYTDSNYYMSWFRQAPGKEREWVAGVNTGRGSTSYADSVKGRFTISQDNAKNTMFLQMNSLKPEDTAIYYCAVAACHFCDSLPKTQDEXILWGQGTQVTVSS
modifications: not fully specified; FSY at 114
notes: plus C-terminal His6
B19 showed a crosslinking efficiency in experiment [4] of less than 50%.

B20: C35-TYR (bispecific antibody)
chain: QVQLQESGGGSVEAGGSLRLSCARSGWPYSTYSMNWFRQAPGKEREAVAGISSTMSGIIFAESKAGQFTISQDNAKNTVYLQMNNLKPEDTAIYYCAARRYFSLSSSSDDFDYWGQGTQVTVSSGGGGSGGGGSGGGGSQVQLQESGGGSVEAGGSLRLSCARSGWPYSTYSMNWFRQAPGKEREAVAGISSTMSGIIFAESKAGQFTISQDNAKNTVYLQMNNLKPEDTAIYYCAARRYFSLSSSSDDFDYWGQGTQVTVSSAAAYPYDVPDYGSLPETGGSPSTPPTPSPSTPP
notes: Tandem of two copies of the same VHH
As to B20, the EC50 in experiment [1] amounted to 12.3 nM.

B21: C26-54TYR (VHH)
VHH: EVQLVESGGGLVQPGGSLTLSCAASRFMISEYSMHWVRQAPGKGLEWVSTINPYGTTDYAESVKGRFTISRDNAKNTLYLQMNSLKPEDTAVYYCDGYGYRGQGTQVTVSS
modifications: MC-PEG8-VC-PABC-MMAE on the C-terminal Cys (DAR 1)
As for B21, the “IC50 PC3pip (M), cell viability by CellTiter-Glo after 4 days” value in experiment [2] worked out at 3.36e-09 M.

B22: C2-50FSY (VHH)
VHH: EVQLVESGGGLVQPGGSLTLSCAASRFMISEYSMHWVRQAPGKGLEWVSXINPAGTTDYAESVKGRFTISRDNAKNTLYLQMNSLKPEDTAVYYCDGYGYRGQGTQVTVSS
modifications: not fully specified; FSY at 50
notes: plus C-terminal His6
B22 returned a crosslinking efficiency in experiment [5] greater than 50%.

B23: C2-53FSY (VHH)
VHH: EVQLVESGGGLVQPGGSLTLSCAASRFMISEYSMHWVRQAPGKGLEWVSTINXAGTTDYAESVKGRFTISRDNAKNTLYLQMNSLKPEDTAVYYCDGYGYRGQGTQVTVSS
modifications: not fully specified; FSY at 53
notes: plus C-terminal His6
As for B23, in experiment [5], the crosslinking efficiency is greater than 50%.

B24: C2-58FSY (VHH)
VHH: EVQLVESGGGLVQPGGSLTLSCAASRFMISEYSMHWVRQAPGKGLEWVSTINPAGTTXYAESVKGRFTISRDNAKNTLYLQMNSLKPEDTAVYYCDGYGYRGQGTQVTVSS
modifications: not fully specified; FSY at 58
notes: plus C-terminal His6
In experiment [5], B24 yielded a crosslinking efficiency greater than 50%.

B25: C2-56FSY (VHH)
VHH: EVQLVESGGGLVQPGGSLTLSCAASRFMISEYSMHWVRQAPGKGLEWVSTINPAGXTDYAESVKGRFTISRDNAKNTLYLQMNSLKPEDTAVYYCDGYGYRGQGTQVTVSS
modifications: not fully specified; FSY at 56
notes: plus C-terminal His6
For B25, the crosslinking efficiency in experiment [5] was less than 50%.

B26: C2-100FSY (VHH)
VHH: EVQLVESGGGLVQPGGSLTLSCAASRFMISEYSMHWVRQAPGKGLEWVSTINPAGTTDYAESVKGRFTISRDNAKNTLYLQMNSLKPEDTAVYYCDGYGXRGQGTQVTVSS
modifications: not fully specified; FSY at 100
notes: plus C-terminal His6
Molecule B26 returned a crosslinking efficiency in experiment [5] of less than 50%.
